A protein production outcome set (Wang et al. 2014)

Assay: label from the status in PepcDB records

Sequence | protein production
PAKWKRGRPDILHVALLTTTDSPLYNEGLLRIYFQVYDGRLFEVGTGVRVPKNYERFRGLVAQLLKTERVPPGEGEALIRLHSRSLAEFVEREGRFILMWEKGSPTTTTYVAARALSTGLPIGVGCFPRGEFKRSTLRKASEAYSIMGGAPLKTWGVASRIVYALER | failed
MKFSVLMSLYVKEQPAFLAECLASLTAQSYPADEIVILYDGKVTAELEVVVQQYAPILPLKQVRFAENRGLGNTLNDGLKYCSHEWVFRMDSDDICDVDRFAKQVAFIQQHPDVVVFGGQIAEFGQNVQDIVAYRAVPTTHQQIVKFSRFRCPFNHMTVAYQKSKVLAVGGYQGLQEDYTLWIKMIASGFLTANLTDVLVYARVGNGMVGRRRNFTQFKYEWQLYRLKTQAKLHSRIVGLGIFALRAIPRILPLAILQRIYKLLRK | failed
MFEFILQLSLGILAVSTFLYVLRVIKGPSIPDRVVALDAIGINLIGITALVSILLNTTAYLEVILLIGILAFIGTVAFSKFLEKGEIIENDRSR | failed
MSSNASTEKQHAGGEKTVKAEPQSTSSQKDSTDDYQPNSQVTDDRTLHKVGQTFSDDKGKAVLKDIKQVNKTYKIGDVELTVKEMKLIHLRPDYSMIDYFHELTHDEEFDFVKVFVDIKNTSTKKVNVAPIALMKTNTGETFDWNKDIYLEELNGELEGGAEKSGNLGFIVNASSGHAHDKAADAEKKTKEIKWIEITTSDVFDHNHKKISDAQKIKIKFLEHHHHHH | not failed
MEWFDKISEFMEGLPEWLQAHPRYGYLIVAGILLLWLVGIVCGWRWTYSRPGSWEGNFWLGTLGERSYRFWLGLIVAAATGCALLLFSVTG | failed
MSSEVEQNVPCEACGCSAEMGFVIKEGDDVAEVSIFADNKVLLESEFSNYLALAKEVCADVEHSIVITEDEKELHARLKFSCSAEKLIYELKTRSLRRLEHHHHHH | failed
MKDISLKDKITQGINDLFYIWKREFRTTFRDQGVLIFFVLVPLVYPLIYSFIYTNEVVREVPAVVVDDSRSSLSREYLRKVDATPDIQIVAYCADMEEAKQMLKDRLAYGIIYIPKDFSSDIAQGKQTQVSIYCDMSGLLYYKSMLLANTAVSLDMNENIKIARSGNTTDRQDEITAYPIEYEDVAMFNPTNGFAAFLIPAVLILIIQQTLLLGIGLSAGTARENNRFKDLVPINRHYNGTLRIVLGKGLSYFMVYALVSVYVLCAVPRMFSLNQIGQPGTLALFILPYLMACIFFAMTASIAIRNRETCMLIFVFTSVPLLFISGISWPGAAIPPFWKYFSYIFPSTFGINGFVRINNMGATLSEIPFEYKALWIQTGFYFLTTCWVYRWQIIKSRKHVIDKYKEMKNKGKEFFS | failed
MSHSIEQLSINTIRTLSIDAIEKANSGHPGMPMGAAPMAYTLWTQFMKHNPNNPTWFNRDRFVLSAGHGSMLLYSLLHLSGYDVTMDDLKNFRQWGSKTPGHPEYGHTAGVDATTGPLGQGIATAVGMAMAERHLAAKYNRDAYNIVDHYTYAICGDGDLMEGVSAEASSLAAHLQLGRLVVLYDSNDISLDGDLNRSFSESVEDRYKAYGWQVIRVEDGNDIEAIAKAIEEAKADEKRPTLIEVRTTIGFGSPNKSGKSASHGSPLGVEETKLTKEAYAWTAEQDFHVAEEVYENFRKTVQDVGETAQAEWNTMLGEYAQAYPELANELQAAMNGLLPEGWEQNLPTYELGSKAATRNSSGAVINAIAESVPSFFGGSADLAGSNKTYMNNEKDFTRDDYSGKNIWYGVREFAMGAAMNGIALHGGLKTYGGTFFVFSDYLRPAIRLAALMQLPVTYVFTHDSIAVGEDGPTHEPIEQLAALRAMPNVSVIRPADGNESVAAWRLALESTNKPTALVLTRQDLPTLEGAKDDTYEKVAKGAYVVSASKKETADVILLATGSEVSLAVEAQKALAVDGVDASVVSMPSMDRFEAQTAEYKESVLPKAVTKRFAIEMGATFGWHRYVGLEGDVLGIDTFGASAPGEKIMEEYGFTVENVVRKVKEML | not failed
MIMEHEYRLEVRGYELDSFGHVNNAVYLNYLEAARWDLCSKLNLTDYNESNELFIVVIETNIKYIRELKLFDKVLIKTELTYEDDYLIFKHNIYNEVTKRKASVAKSKMVLVSKQRIIYEIPQFIKDKLDICAYGLEHHHHHH | failed
MAVVSHGGFRAAARALDVSQGGLTKSIAALEQEYGVDLIERSAKGVLLTPKGAAFVPLARAIVEEAERAEGWLRAQSGELSTSVSLGVSIEPSIRLAPAVLRDFRKALPDTSVHLTQGVALDLLGALRENRIELAVIRLPRNFDSSDLKVQRLYQSEPVIVGRAGHPGAGAASLRELVKYDWVVVGDTSRQGAMNDDSIWELFDREGLGRPRFAAVCNSLLSIVAMLMESDALARVPRALLDHSLARRNLIPIPVAEPPVPYWIATVHKASRRLSPEAQTLNAMLSSYARISGALSPERRPGEP | failed
ARGHRHTCKVMVLKEEAAGSERALALDMREGQRVFHSLIVHFENDIPVQIEDRFVNAQVAPDYLKQDFTLQTPYAYLSQVAPLTEGEHVVEAILAEADECKLLQIDAGEPCLLIRRRTWSGRQPVTAARLIHPGSRHRLEGRFTK | not failed
MSFSFLFILTAGMVAAFNPCGIALLPSYISYLIGGETKDHSFRYAIFKGLGLGGAMTTGFLTIFVLAGLLIGGLGSALTGIFPILSLVMGILIALLGLGMLFGKHLPIKIGSFQVKPGKWSIYFYGIAYAVTSLGCTLPAFMLVVSASLNDNSVTAVIIKFIIYSLGMGIVVTAITMVSLISRQLVQKFLHNYMGSIQKIAAVVIFLSGLYMAYYWYFGSGGICTF | failed
MANLLSTCTSESGNIQHISPQNAGWEYVGFDVWQLKAGESITLPSDERERCLVLVAGLASVKAADSFFYRIGQRMSPFERIPAYSVYLPHHTEAKVTAETDLELAVCSAPGFGELPVRLISPQEVGVEHRGKGRNQRLVHNILPDSQLADSLLVVEVYTNAGATSSWPAHKHDTAVEGQETYLEETYYHRFNPPQGFCLQRVYTDDRSLDECMAVYNRDVVKVPKGYHPVATIAGYDNYYLNVMAGPLRKWRFTWEENHAWINSPDYPR | not failed
MLDVAPPVITPRGTKIEPSAGAPFEAVRVARDVLHTSRTAALATLDPVSGYPYTTATNIGIEPDGTPFFFAAGLTLHARNMETDARISVTLAPFGKGDALTLPRLTLVGRADRIGPDEVPLAIARYIARYPKAKLYLSLPDTRLYRLRTEGVQINGGPARNASNITPADLRTDLSGAEELMAAAESEATRLNAIKGEASRLAVLAGAKTGRWKITSIDPDGIDLASASDLARLWFAERVETLKQFEKALAQLLK | not failed
MRERRFTSDAAHELRSPLTALKVQTEVAQLSDDDPQARKKALLQLHSGIDRATRLVDQLLTLSRLDSLDNLQDVAEIPLEDLLQSSVMDIYHTAQQAKIDVRLTLNAHSIKRTGQPLLLSLLVRNLLDNAVRYSPQGSVVDVTLNADNFIVRDNGPGVTPEALARIGERFYRPPGQTATGSGLGLSIVQRIAKLHGMNVEFGNAEQGGFEAKVSW | not failed
SQSLKPEPFGRRAQAVETNKTLHEMKTRFLLFGETNQGCQIRINHPDTLQECGFNSSLPLVMIIHGWSVDGVLENWIWQMVAALKSQPAQPVNVGLVDWITLAHDHYTIAVRNTRLVGKEVAALLRWLEESVQLSRSHVHLIGYSLGAHVSGFAGSSIGGTHKIGRITGLDAAGPLFEGSAPSNRLSPDDANFVDAIHTFTREHMGLSVGIKQPIGHYDFYPNGGSFQPGCHFLELYRHIAQHGFNAITQTIKCSHERSVHLFIDSLLHAGTQSMAYPCGDMNSFSQGLCLSCKKGRCNTLGYHVRQEPRSKSKRLFLVTRAQSPFKVYHYQLKIQFINQTETPIQTTFTMSLLGTKEKMQKIPITLGKGIASNKTYSFLITLDVDIGELIMIKFKWENSAVWANVWDTVQTIIPWSTGPRHSGLVLKTIRVKAGETQQRMTFCSENTDDLLLRPTQEKIFVKCEIKSKTSKRKIR | failed
MMLITERRSPFYPNIQNVPPSVIRKLVKNKAITLIDVRQPWEYEDHHIPGSILLPLDYFKELFPLVLSKNNLVKNGVAIICEHANRSTWLVYTEPSLFKEVKVYNMLGGIELWMIMGYEIEKGMDDNGTLWYKLLTKNLGLEHHHHHH | failed
